The numbers were not newly measured in article PMC4346141, which cites them from elsewhere.

Series [1] deals with IL12Rβ1 monomer (Homo sapiens) (UniProt P42701).
The target in the next series is IL12Rβ1 (Homo sapiens) (UniProt P42701).
Another series deals with IL12Rβ2 (Homo sapiens) (UniProt Q99665).
The target of series [2] is IL12Rβ1 clone 3 (Mus musculus) (UniProt Q60837).
In series [3] the target is IL12Rβ1 clone 2 (Mus musculus) (UniProt Q60837).
IL12Rβ1 clone 2 (Mus musculus), sequence (Q60837 20-565): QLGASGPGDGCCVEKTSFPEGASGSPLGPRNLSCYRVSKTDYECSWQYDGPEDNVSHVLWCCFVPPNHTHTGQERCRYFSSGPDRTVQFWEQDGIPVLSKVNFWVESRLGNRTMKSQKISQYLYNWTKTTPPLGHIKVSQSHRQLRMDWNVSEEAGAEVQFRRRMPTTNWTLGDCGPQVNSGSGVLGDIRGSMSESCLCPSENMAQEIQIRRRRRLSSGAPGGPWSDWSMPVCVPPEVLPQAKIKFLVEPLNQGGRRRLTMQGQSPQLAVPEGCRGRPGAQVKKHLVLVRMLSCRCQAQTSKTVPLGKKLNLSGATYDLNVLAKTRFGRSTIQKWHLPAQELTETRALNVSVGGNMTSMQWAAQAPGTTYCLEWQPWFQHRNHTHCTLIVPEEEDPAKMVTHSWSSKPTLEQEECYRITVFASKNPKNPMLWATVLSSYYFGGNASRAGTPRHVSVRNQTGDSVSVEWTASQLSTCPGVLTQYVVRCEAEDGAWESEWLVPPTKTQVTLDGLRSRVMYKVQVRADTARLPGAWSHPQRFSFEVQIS

IL12, sequence (P29459 23-219): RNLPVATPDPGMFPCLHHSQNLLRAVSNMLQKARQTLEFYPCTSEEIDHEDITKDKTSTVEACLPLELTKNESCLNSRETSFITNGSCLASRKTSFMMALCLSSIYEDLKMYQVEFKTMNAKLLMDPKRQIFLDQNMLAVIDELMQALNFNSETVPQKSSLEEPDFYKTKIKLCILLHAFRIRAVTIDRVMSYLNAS
IL12, sequence (P29460 23-328, further chain): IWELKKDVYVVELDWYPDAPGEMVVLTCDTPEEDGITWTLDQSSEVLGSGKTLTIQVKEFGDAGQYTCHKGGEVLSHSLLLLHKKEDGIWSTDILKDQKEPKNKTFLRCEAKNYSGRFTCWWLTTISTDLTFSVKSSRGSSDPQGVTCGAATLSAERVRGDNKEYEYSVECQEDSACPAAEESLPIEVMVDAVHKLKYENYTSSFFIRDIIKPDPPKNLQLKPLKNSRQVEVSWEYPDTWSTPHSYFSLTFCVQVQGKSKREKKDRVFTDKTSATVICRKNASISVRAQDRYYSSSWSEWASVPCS
IL12Rβ1 clone 3 (Mus musculus), sequence (Q60837 20-565): as the sequence (Q60837 20-565) above
IL12Rβ2 (Homo sapiens), sequence (Q99665 24-622): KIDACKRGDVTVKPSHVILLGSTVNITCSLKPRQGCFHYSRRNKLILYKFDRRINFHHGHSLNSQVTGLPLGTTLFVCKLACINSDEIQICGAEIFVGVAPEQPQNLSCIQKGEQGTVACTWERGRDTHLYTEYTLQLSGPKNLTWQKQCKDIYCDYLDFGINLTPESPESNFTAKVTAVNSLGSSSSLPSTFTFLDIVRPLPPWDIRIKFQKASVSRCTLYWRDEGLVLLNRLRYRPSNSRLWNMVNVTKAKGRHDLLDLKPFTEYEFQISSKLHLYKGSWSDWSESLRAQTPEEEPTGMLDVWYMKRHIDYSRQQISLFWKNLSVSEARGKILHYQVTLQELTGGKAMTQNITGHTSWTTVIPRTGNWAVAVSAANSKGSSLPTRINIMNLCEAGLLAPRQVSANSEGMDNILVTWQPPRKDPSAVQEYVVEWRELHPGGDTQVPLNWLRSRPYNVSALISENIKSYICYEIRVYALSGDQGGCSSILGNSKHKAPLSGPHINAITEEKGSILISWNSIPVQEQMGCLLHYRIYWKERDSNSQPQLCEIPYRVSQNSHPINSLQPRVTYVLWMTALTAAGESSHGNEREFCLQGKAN

With IL12 (from UniProt P29459), the dissociation constant Kd (commonly a measure of binding affinity in units of concentration) in series [1] was more than 50 nM; with IL12Rβ1 (Homo sapiens), 3 nM; in the series with IL12Rβ2 (Homo sapiens) it was 5 nM.
Consider IL12 (from UniProt P43431), for which the equilibrium dissociation constant (Kd) in series [2] was 1.3 nM; in series [3], 0.899 nM.
